The target of test [1] is T1, recombinant human SLPI (Secretory leukocyte protease inhibitor), R&D Systems Cat#260-PI (human, UniProt P03973 25-131, biotinylated in the streptavidin-plate ELISAs and on SRBCs).
T1 construct: Bought protein; also called biotinylated SLPI; B-Cur12
Kind of test: limiting antigen ELISA, biotinylated SLPI coated at 200 ng/ml. Here is the method: The limiting antigen analysis is a method that affinity ranks the antigen-specific antibodies in B cell culture supernatants. […] Each plate was washed 5 times with dH₂O, before 46 μl/well of 1% milk in PBS with 0.05% sodium azide was added, followed by 4 μl/well of B cell supernatant. After 22 hours at RT on a shaker, the plates were again washed 5 times with dH₂O. Goat anti-Human (Fc)-HRP at 1 μg/ml, 50 μl/well was added. After 1 hour at RT, the plates were again washed 5 times with dH₂O and 50 μl/well of TMB substrate was added. The reaction was stopped by the addition of 50 μl of 1M phosphoric acid to each well and the plates were read at wavelength 450 nm. 42C1, 43H7, 35F1 and 9G12 were chosen for further evaluation and cloning.
For orientation: In an ELISA, binding on a coated surface is turned into a signal by an enzyme label.

Test [2] deals with T1, recombinant human SLPI (Secretory …). The test can be described thus: ELISA, B cell supernatant on biotinylated SLPI, primary screen. Here is the method: Anti-SLPI antibody titers were determined by indirect ELISA. Briefly, biotinylated SLPI (0.5 μg/mL) was coated onto Sigma Streptavidin Clear Polystyrene 96 well ELISA plates for 30 minutes at room temperature (RT). The plates were then washed 4× by hand, then pat dried on paper towels. XenoMouse® animal sera from SLPI immunized, or naïve XenoMouse® animals, were titrated out to 6 wells, the last well left blank, in 1% no fat skim milk/PBS at 1:2 dilutions in duplicate from a 1:500 initial dilution. 50 μl was used for each well. The plates were incubated for 1 hour then washed four times. 50 μl of a goat anti-human IgG Fc-specific HRP-conjugated antibody (0.4 μg/mL) was added to each well and incubated for 1 hour at RT. The plates were washed five times with distilled water (dH₂O). The plates were developed with the addition of TMB for 30 minutes and the ELISA was stopped by the addition of 1 M phosphoric acid. The specific titers of individual XenoMouse® animals were determined from the optical density at 450 nm, Table 2. The titers represent the reciprocal dilution of the serum to either SLPI or streptavidin and therefore the higher the number, the greater the humoral immune response. Lymph nodes were harvested for XenoMax® antibody generation from immunized XenoMouse® animals with specific titers to SLPI versus streptavidin as shown in Table 4.
B cells from the harvested animals were cultured and those secreting SLPI-specific antibodies were isolated as described previously (Babcook et al., 1996 Proc. Natl. Acad. Sci. USA, 93:7843-7848). ELISA, performed as described above, was used to identify primary SLPI-specific wells from fifty plates cultured at 500 or 150 cells/well.

In test [3] the target is T2, SLPI of human tumour cell lines (endogenous; on cells or in conditioned media) (human, UniProt P03973 26-132). Kind of test: cell-based or functional assay.
Test [4] addresses T2, SLPI of human tumour cell lines …. Kind of test: flow cytometry, 42C1 at 170 nM on OVCAR-4 cells. Here is the method: (§1) FACS analysis of anti-SLPI antibody binding to OVCAR4, OVCAR-5, OVCAR-8, SK-OV-3, A2780, SF294, 786-0 cell lines was done as follows. Suspended cells were washed twice with ice-cold FACS buffer (SOURCE) and incubated with antibody 42C1 (170 nM/FACS buffer) for 1 hr then washed. Cells were incubated with a 1:500 dilution in FACS buffer of […] donkey anti-human IgG (H+L) (Jackson Immunolabs) for 30 minutes. Cells were washed and then fixed with 1% formaldehyde in PBS. Analysis was done using a FACS Calibur™ flow cytometer (Becton Dickinson, Frankin Lakes, N.J.).
(§2) 42C1 antibody bound SLPI on SLPI expressing ovarian cancer cell lines: OVCAR-4 (Geo Mean Ratio 37), OVCAR-5 (Geo Mean Ratio 10), and OVCAR-8 (Geo Mean Ratio 35) as compared to SLPI negative cell line 786-0 (Geo Mean Ratio 3).
For orientation: Flow cytometry measures light scatter and fluorescence of single cells or particles in a stream.

The target is the same in test [5]. Kind of test: flow cytometry, 42C1 at 170 nM on OVCAR-8 cells. Here is the method: as §1, §2
Test [6] shares this target. Kind of test: flow cytometry, 42C1 at 170 nM on OVCAR-5 cells. On the procedure: as §1, §2

Data on four molecules can be found in patent publication US20050142137A1 (CURAGEN, published 2005).

Positions count from the first letter of the chain named.

T1 sequence (P03973 25-131): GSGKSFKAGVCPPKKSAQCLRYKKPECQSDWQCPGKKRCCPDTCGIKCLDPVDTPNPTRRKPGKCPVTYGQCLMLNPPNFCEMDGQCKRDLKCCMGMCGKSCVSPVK
T2 sequence (P03973 26-132 limits assumed): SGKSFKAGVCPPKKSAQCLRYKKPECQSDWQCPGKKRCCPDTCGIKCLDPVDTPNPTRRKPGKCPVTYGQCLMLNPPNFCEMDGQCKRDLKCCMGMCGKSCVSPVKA

B1: 43H7 (antibody, human IgG2, V domains shown)
VH: QVQLVESGGGVVQPGRSLRLSCAASGFTFSTYGMHWVRQAPGKGLEWVTFIWYDGRNKYYADSVKGRFTVSRDNSKNTLYLQMNSLRAEDTAVYYCARGDDYGDYHPHYYYYGLDVWGQGTTVTVSS
VL: DIVMTQTPLSLSVTPGQPASISCKSSQSLLDSDGKTYLYWYLQKPGQPPQLLIYEVSNRFSGVPDRFSGSGSGTDFTLKISRVEAEDVAYYYCMQSIQLPWTFGQGTKVEIK
notes: Fully human, XenoMouse XMG2; also called #11; Cur12.1 PL43 H7
B1: in test [1], the OD came out at 3.52 OD450. Moreover, the “1* OD” value in test [2] is 3.37 OD450.

B2: 9G12 (antibody, human IgG2, V domains shown)
VH: B1 VH with T31G, T49A, D54N, R56N, N57D, K58N, A61T, V70I, L114M
VL: B1 VL with V88I, A89G, Y90V, M94L
notes: Fully human, XenoMouse XMG2; also called #36; Cur12.1 PL09 G12
For the molecule B2, the OD in test [1] turned out to be 1.36 OD450. In addition, the “1* OD” value in test [2] was 2 OD450.

B3: 35F1 (antibody, human IgG2, V domains shown)
VH: QVQLQESGPGLVKPSQTLSLTCTVSGGSIKSGDYYWSWVRQLPGKGLEWIGYIYYSGSTYYNPSLKSRVTISIDTSKNQFSLKLSSVTAADTAVYYCAREGSYYDSGGFDYWGQGTLVTVSS
VL: not shown
notes: Fully human, XenoMouse XMG2; also called #50; Cur12.1 PL35 F1
Consider B3, for which, in test [3], the “IC50 of growth inhibition of IGROV-1 cells, clonogenic assay” value came out at 163 nM and the “IC50 of growth inhibition of SW480 cells, clonogenic assay” value turned out to be 85 nM. Also, the OD in test [1] is 0.24 OD450. Besides, the “1* OD” value in test [2] was 0.425 OD450.

B4: 42C1 (antibody, human IgG2, V domains shown)
VH: B3 VH with G27V, K30S, D33G, V39I, L42H, I73V, Y95F, S102E, S106E
VL: not shown
notes: Fully human, XenoMouse XMG2; also called #24; Cur12.1 PL42 C1
B4: in test [3], the “IC50 of growth inhibition of IGROV-1 cells, clonogenic assay” value was 121 nM. The “IC50 of growth inhibition of SW480 cells, clonogenic assay” value in test [3] turned out to be 85 nM. For the same molecule, the “Geo Mean Ratio” value in test [4] came to 37; in test [5] it was 35; in test [6], 10. In test [1], the OD worked out at 3.69 OD450. Besides, the “1* OD” value in test [2] is 3.23 OD450.
